Experimental data reported in patent US20190062438A1 (CSL, published 2019).

These binders were tested against T1, human CD131 (human, UniProt P32927 17-897) (assay: cell-based or functional assay).
T1 sequence: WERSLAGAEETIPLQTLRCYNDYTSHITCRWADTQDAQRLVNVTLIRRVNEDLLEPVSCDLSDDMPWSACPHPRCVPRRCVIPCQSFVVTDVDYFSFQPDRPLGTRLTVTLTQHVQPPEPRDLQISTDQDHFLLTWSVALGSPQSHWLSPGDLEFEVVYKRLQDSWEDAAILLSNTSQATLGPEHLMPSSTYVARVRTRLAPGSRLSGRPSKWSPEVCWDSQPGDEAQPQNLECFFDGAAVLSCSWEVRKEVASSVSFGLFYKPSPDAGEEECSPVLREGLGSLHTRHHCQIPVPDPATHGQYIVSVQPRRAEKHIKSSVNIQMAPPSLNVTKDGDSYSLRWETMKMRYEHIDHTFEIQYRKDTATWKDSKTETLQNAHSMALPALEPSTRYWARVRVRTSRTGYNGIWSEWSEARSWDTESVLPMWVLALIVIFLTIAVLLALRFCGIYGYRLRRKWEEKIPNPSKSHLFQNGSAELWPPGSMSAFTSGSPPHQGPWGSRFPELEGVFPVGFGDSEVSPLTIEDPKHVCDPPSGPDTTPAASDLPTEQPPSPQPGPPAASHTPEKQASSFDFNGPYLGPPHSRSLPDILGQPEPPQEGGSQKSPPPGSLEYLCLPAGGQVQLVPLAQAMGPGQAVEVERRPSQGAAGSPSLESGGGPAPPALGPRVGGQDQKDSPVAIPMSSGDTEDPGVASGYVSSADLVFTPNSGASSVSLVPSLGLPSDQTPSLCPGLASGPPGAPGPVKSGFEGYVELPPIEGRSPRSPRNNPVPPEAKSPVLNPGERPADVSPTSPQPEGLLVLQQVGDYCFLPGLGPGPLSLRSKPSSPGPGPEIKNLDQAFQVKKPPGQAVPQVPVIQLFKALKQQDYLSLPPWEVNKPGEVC

Binder	IC50 GM-CSF, TF-1 proliferation [nM]
9A2-VR39.22 (antibody, V domains shown) VH: EVQLLESGGGLVQPGGSLRLSCAASGFTFQWYHVIWVRQAPGKGLEWVSSINGRGRVTYYADSVKGRFTISRDNSKNTLYLQMNSLRAEDTAVYYCARFYDSFFDIWGQGTMVTVSS VL: DIQMTQSPSSVSASVGDRVTITCRASQGISSWLAWYQQKPGKAPKLLIYAASSLQSGVPSRFSGSGSGTDFTLTISSLQPEDFATYYCQQANSFPITFGQGTRLEIKR	0.5
9A2-VR39.116 (antibody, V domains shown) VH: EVQLLESGGGLVQPGGSLRLSCAASGFTFPWFVMVWVRQAPGKGLEWVSSINGRGRVTYYADSVKGRFTISRDNSKNTLYLQMNSLRAEDTAVYYCARFYDSFFDIWGQGTMVTVSS VL: DIQMTQSPSSVSASVGDRVTITCRASQGISSWLAWYQQKPGKAPKLLIYAASSLQSGVPSRFSGSGSGTDFTLTISSLQPEDFATYYCQQANSFPITFGQGTRLEIKR	7.93
9A2-VR39.109 (antibody, V domains shown) VH: EVQLLESGGGLVQPGGSLRLSCAASGFTFMWYHHIWVRQAPGKGLEWVSSINGRGRVTYYADSVKGRFTISRDNSKNTLYLQMNSLRAEDTAVYYCARFYDSFFDIWGQGTMVTVSS VL: DIQMTQSPSSVSASVGDRVTITCRASQGISSWLAWYQQKPGKAPKLLIYAASSLQSGVPSRFSGSGSGTDFTLTISSLQPEDFATYYCQQANSFPITFGQGTRLEIKR	0.24
9A2-VR39.103 (antibody, V domains shown) VH: EVQLLESGGGLVQPGGSLRLSCAASGFTFQHFHWVWVRQAPGKGLEWVSSINGRGRVTYYADSVKGRFTISRDNSKNTLYLQMNSLRAEDTAVYYCARFYDSFFDIWGQGTMVTVSS VL: DIQMTQSPSSVSASVGDRVTITCRASQGISSWLAWYQQKPGKAPKLLIYAASSLQSGVPSRFSGSGSGTDFTLTISSLQPEDFATYYCQQANSFPITFGQGTRLEIKR	5.14
9A2-VR39.111 (antibody, V domains shown) VH: EVQLLESGGGLVQPGGSLRLSCAASGFTFPWFHFVWVRQAPGKGLEWVSSINGRGRVTYYADSVKGRFTISRDNSKNTLYLQMNSLRAEDTAVYYCARFYDSFFDIWGQGTMVTVSS VL: DIQMTQSPSSVSASVGDRVTITCRASQGISSWLAWYQQKPGKAPKLLIYAASSLQSGVPSRFSGSGSGTDFTLTISSLQPEDFATYYCQQANSFPITFGQGTRLEIKR	0.99
9A2-VR39.23 (antibody, V domains shown) VH: EVQLLESGGGLVQPGGSLRLSCAASGFTFHHYHTVWVRQAPGKGLEWVSSINGRGRVTYYADSVKGRFTISRDNSKNTLYLQMNSLRAEDTAVYYCARFYDSFFDIWGQGTMVTVSS VL: DIQMTQSPSSVSASVGDRVTITCRASQGISSWLAWYQQKPGKAPKLLIYAASSLQSGVPSRFSGSGSGTDFTLTISSLQPEDFATYYCQQANSFPITFGQGTRLEIKR	0.9
9A2-VR39.110 (antibody, V domains shown) VH: EVQLLESGGGLVQPGGSLRLSCAASGFTFVWYHHIWVRQAPGKGLEWVSSINGRGRVTYYADSVKGRFTISRDNSKNTLYLQMNSLRAEDTAVYYCARFYDSFFDIWGQGTMVTVSS VL: DIQMTQSPSSVSASVGDRVTITCRASQGISSWLAWYQQKPGKAPKLLIYAASSLQSGVPSRFSGSGSGTDFTLTISSLQPEDFATYYCQQANSFPITFGQGTRLEIKR	0.28
9A2-VR39.28 (antibody, V domains shown) VH: EVQLLESGGGLVQPGGSLRLSCAASRGAPMWYHMLWVRQAPGKGLEWVSSINGRGRVTYYADSVKGRFTISRDNSKNTLYLQMNSLRAEDTAVYYCARFYDSFFDIWGQGTMVTVSS VL: DIQMTQSPSSVSASVGDRVTITCRASQGISSWLAWYQQKPGKAPKLLIYAASSLQSGVPSRFSGSGSGTDFTLTISSLQPEDFATYYCQQANSFPITFGQGTRLEIKR	57.2
9A2-VR39.46 (antibody, V domains shown) VH: EVQLLESGGGLVQPGGSLRLSCAASDVDFGWYHMLWVRQAPGKGLEWVSSINGRGRVTYYADSVKGRFTISRDNSKNTLYLQMNSLRAEDTAVYYCARFYDSFFDIWGQGTMVTVSS VL: DIQMTQSPSSVSASVGDRVTITCRASQGISSWLAWYQQKPGKAPKLLIYAASSLQSGVPSRFSGSGSGTDFTLTISSLQPEDFATYYCQQANSFPITFGQGTRLEIKR	3.34
9A2-VR39.98 (antibody, V domains shown) VH: EVQLLESGGGLVQPGGSLRLSCAASGFTFEHYHTIWVRQAPGKGLEWVSSINGRGRVTYYADSVKGRFTISRDNSKNTLYLQMNSLRAEDTAVYYCARFYDSFFDIWGQGTMVTVSS VL: DIQMTQSPSSVSASVGDRVTITCRASQGISSWLAWYQQKPGKAPKLLIYAASSLQSGVPSRFSGSGSGTDFTLTISSLQPEDFATYYCQQANSFPITFGQGTRLEIKR	1.44
9A2-VR39.24 (antibody, V domains shown) VH: EVQLLESGGGLVQPGGSLRLSCAASGFTFHHFHVIWVRQAPGKGLEWVSSINGRGRVTYYADSVKGRFTISRDNSKNTLYLQMNSLRAEDTAVYYCARFYDSFFDIWGQGTMVTVSS VL: DIQMTQSPSSVSASVGDRVTITCRASQGISSWLAWYQQKPGKAPKLLIYAASSLQSGVPSRFSGSGSGTDFTLTISSLQPEDFATYYCQQANSFPITFGQGTRLEIKR	0.42
9A2-VR39.27 (antibody, V domains shown) VH: EVQLLESGGGLVQPGGSLRLSCAASRTSFMWYHMLWVRQAPGKGLEWVSSINGRGRVTYYADSVKGRFTISRDNSKNTLYLQMNSLRAEDTAVYYCARFYDSFFDIWGQGTMVTVSS VL: DIQMTQSPSSVSASVGDRVTITCRASQGISSWLAWYQQKPGKAPKLLIYAASSLQSGVPSRFSGSGSGTDFTLTISSLQPEDFATYYCQQANSFPITFGQGTRLEIKR	17.9
9A2-VR39.102 (antibody, V domains shown) VH: EVQLLESGGGLVQPGGSLRLSCAASGFTFQWFHYIWVRQAPGKGLEWVSSINGRGRVTYYADSVKGRFTISRDNSKNTLYLQMNSLRAEDTAVYYCARFYDSFFDIWGQGTMVTVSS VL: DIQMTQSPSSVSASVGDRVTITCRASQGISSWLAWYQQKPGKAPKLLIYAASSLQSGVPSRFSGSGSGTDFTLTISSLQPEDFATYYCQQANSFPITFGQGTRLEIKR	2.29
9A2-VR39.112 (antibody, V domains shown) VH: EVQLLESGGGLVQPGGSLRLSCAASGFTFPYYHQVWVRQAPGKGLEWVSSINGRGRVTYYADSVKGRFTISRDNSKNTLYLQMNSLRAEDTAVYYCARFYDSFFDIWGQGTMVTVSS VL: DIQMTQSPSSVSASVGDRVTITCRASQGISSWLAWYQQKPGKAPKLLIYAASSLQSGVPSRFSGSGSGTDFTLTISSLQPEDFATYYCQQANSFPITFGQGTRLEIKR	1
9A2-VR39.105 (antibody, V domains shown) VH: EVQLLESGGGLVQPGGSLRLSCAASGFTFPYYHMIWVRQAPGKGLEWVSSINGRGRVTYYADSVKGRFTISRDNSKNTLYLQMNSLRAEDTAVYYCARFYDSFFDIWGQGTMVTVSS VL: DIQMTQSPSSVSASVGDRVTITCRASQGISSWLAWYQQKPGKAPKLLIYAASSLQSGVPSRFSGSGSGTDFTLTISSLQPEDFATYYCQQANSFPITFGQGTRLEIKR	0.53
9A2-VR39.97 (antibody, V domains shown) VH: EVQLLESGGGLVQPGGSLRLSCAASGFTFPWFHFVWVRQAPGKGLEWVSSINGRGRVTYYADSVKGRFTISRDNSKNTLYLQMNSLRAEDTAVYYCARFYDSFFDIWGQGTMVTVSS VL: DIQMTQSPSSVSASVGDRVTITCRASQGISSWLAWYQQKPGKAPKLLIYAASSLQSGVPSRFSGSGSGTDFTLTISSLQPEDFATYYCQQANSFPITFGQGTRLEIKR	0.92
